First the molecules themselves.
B1: Compound 14 (peptide)
peptide: Ac-ESSAICIWQDWGEHRCTGAES-NH2
modifications: disulfide 6-16
SMILES: CC[C@H](C)[C@H](NC(=O)[C@H](C)NC(=O)[C@H](CO)NC(=O)[C@H](CO)NC(=O)[C@H](CCC(=O)O)NC(C)=O)C(=O)N[C@H]1CSSC[C@@H](C(=O)N[C@H](C(=O)NCC(=O)N[C@@H](C)C(=O)N[C@@H](CCC(=O)O)C(=O)N[C@@H](CO)C(N)=O)[C@@H](C)O)NC(=O)[C@H](CCCNC(=N)N)NC(=O)[C@H](Cc2c[nH]cn2)NC(=O)[C@H](CCC(=O)O)NC(=O)CNC(=O)[C@H](Cc2c[nH]c3ccccc23)NC(=O)[C@H](CC(=O)O)NC(=O)[C@H](CCC(N)=O)NC(=O)[C@H](Cc2c[nH]c3ccccc23)NC(=O)[C@H]([C@@H](C)CC)NC1=O
B2: Compound 12 (peptide)
peptide: Ac-ICIWQDWGAHRCE-NH2
modifications: disulfide 2-12
SMILES: CC[C@H](C)[C@H](NC(C)=O)C(=O)N[C@H]1CSSC[C@@H](C(=O)N[C@@H](CCC(=O)O)C(N)=O)NC(=O)[C@H](CCCNC(=N)N)NC(=O)[C@H](Cc2c[nH]cn2)NC(=O)[C@H](C)NC(=O)CNC(=O)[C@H](Cc2c[nH]c3ccccc23)NC(=O)[C@H](CC(=O)O)NC(=O)[C@H](CCC(N)=O)NC(=O)[C@H](Cc2c[nH]c3ccccc23)NC(=O)[C@H]([C@@H](C)CC)NC1=O
B3: Compound 145 (peptide)
peptide: Ac-EFCI[Trp(1-Me)]QDWGEHRC[Sar]EA-{AEEA-AEEA-X1-NH2}
modifications: disulfide 3-13
SMILES: CC[C@H](C)[C@@H]1NC(=O)[C@@H](NC(=O)[C@H](Cc2ccccc2)NC(=O)[C@H](CCC(=O)O)NC(C)=O)CSSC[C@@H](C(=O)N(C)CC(=O)N[C@@H](CCC(=O)O)C(=O)N[C@@H](C)C(=O)NCCOCCOCC(=O)NCCOCCOCC(=O)N[C@@H](CCCCNC(=O)CC[C@H](NC(=O)CNC(=O)CC[C@H](NC(=O)CCCCCCCCCCCCCCCCC(=O)O)C(=O)O)C(=O)O)C(N)=O)NC(=O)[C@H](CCCNC(=N)N)NC(=O)[C@H](Cc2c[nH]cn2)NC(=O)[C@H](CCC(=O)O)NC(=O)CNC(=O)[C@H](Cc2c[nH]c3ccccc23)NC(=O)[C@H](CC(=O)O)NC(=O)[C@H](CCC(N)=O)NC(=O)[C@H](Cc2cn(C)c3ccccc23)NC1=O
B4: Compound 17 (peptide)
peptide: Ac-ICIWQDWGDHRCT-NH2
modifications: disulfide 2-12
SMILES: CC[C@H](C)[C@H](NC(C)=O)C(=O)N[C@H]1CSSC[C@@H](C(=O)N[C@H](C(N)=O)[C@@H](C)O)NC(=O)[C@H](CCCNC(=N)N)NC(=O)[C@H](Cc2c[nH]cn2)NC(=O)[C@H](CC(=O)O)NC(=O)CNC(=O)[C@H](Cc2c[nH]c3ccccc23)NC(=O)[C@H](CC(=O)O)NC(=O)[C@H](CCC(N)=O)NC(=O)[C@H](Cc2c[nH]c3ccccc23)NC(=O)[C@H]([C@@H](C)CC)NC1=O
B5: Compound 13 (peptide)
peptide: Ac-ICIWQDWGEHRC[Sar]-NH2
modifications: disulfide 2-12
SMILES: CC[C@H](C)[C@H](NC(C)=O)C(=O)N[C@H]1CSSC[C@@H](C(=O)N(C)CC(N)=O)NC(=O)[C@H](CCCNC(=N)N)NC(=O)[C@H](Cc2c[nH]cn2)NC(=O)[C@H](CCC(=O)O)NC(=O)CNC(=O)[C@H](Cc2c[nH]c3ccccc23)NC(=O)[C@H](CC(=O)O)NC(=O)[C@H](CCC(N)=O)NC(=O)[C@H](Cc2c[nH]c3ccccc23)NC(=O)[C@H]([C@@H](C)CC)NC1=O
B6: Compound 25 (peptide)
peptide: Ac-ICIWQDWGEHRCTEA-NH2
modifications: disulfide 2-12
SMILES: CC[C@H](C)[C@H](NC(C)=O)C(=O)N[C@H]1CSSC[C@@H](C(=O)N[C@H](C(=O)N[C@@H](CCC(=O)O)C(=O)N[C@@H](C)C(N)=O)[C@@H](C)O)NC(=O)[C@H](CCCNC(=N)N)NC(=O)[C@H](Cc2c[nH]cn2)NC(=O)[C@H](CCC(=O)O)NC(=O)CNC(=O)[C@H](Cc2c[nH]c3ccccc23)NC(=O)[C@H](CC(=O)O)NC(=O)[C@H](CCC(N)=O)NC(=O)[C@H](Cc2c[nH]c3ccccc23)NC(=O)[C@H]([C@@H](C)CC)NC1=O
B7: Compound 9 (peptide)
peptide: Ac-YCIWQDWGEHRCT-NH2
modifications: disulfide 2-12
SMILES: CC[C@H](C)[C@@H]1NC(=O)[C@@H](NC(=O)[C@H](Cc2ccc(O)cc2)NC(C)=O)CSSC[C@@H](C(=O)N[C@H](C(N)=O)[C@@H](C)O)NC(=O)[C@H](CCCNC(=N)N)NC(=O)[C@H](Cc2c[nH]cn2)NC(=O)[C@H](CCC(=O)O)NC(=O)CNC(=O)[C@H](Cc2c[nH]c3ccccc23)NC(=O)[C@H](CC(=O)O)NC(=O)[C@H](CCC(N)=O)NC(=O)[C@H](Cc2c[nH]c3ccccc23)NC1=O
B8: Compound 18 (peptide)
peptide: Ac-ICIWQDWGRHRCT-NH2
modifications: disulfide 2-12
SMILES: CC[C@H](C)[C@H](NC(C)=O)C(=O)N[C@H]1CSSC[C@@H](C(=O)N[C@H](C(N)=O)[C@@H](C)O)NC(=O)[C@H](CCCNC(=N)N)NC(=O)[C@H](Cc2c[nH]cn2)NC(=O)[C@H](CCCNC(=N)N)NC(=O)CNC(=O)[C@H](Cc2c[nH]c3ccccc23)NC(=O)[C@H](CC(=O)O)NC(=O)[C@H](CCC(N)=O)NC(=O)[C@H](Cc2c[nH]c3ccccc23)NC(=O)[C@H]([C@@H](C)CC)NC1=O
B9: Compound 143 (peptide)
peptide: Ac-SEFCI[Trp(1-Me)]QDWGEHRC[Sar]EGE-{AEEA-AEEA-AEEA-X1-NH2}
modifications: disulfide 4-14
SMILES: CC[C@H](C)[C@@H]1NC(=O)[C@@H](NC(=O)[C@H](Cc2ccccc2)NC(=O)[C@H](CCC(=O)O)NC(=O)[C@H](CO)NC(C)=O)CSSC[C@@H](C(=O)N(C)CC(=O)N[C@@H](CCC(=O)O)C(=O)NCC(=O)N[C@@H](CCC(=O)O)C(=O)NCCOCCOCC(=O)NCCOCCOCC(=O)NCCOCCOCC(=O)N[C@@H](CCCCNC(=O)CC[C@H](NC(=O)CNC(=O)CC[C@H](NC(=O)CCCCCCCCCCCCCCCCC(=O)O)C(=O)O)C(=O)O)C(N)=O)NC(=O)[C@H](CCCNC(=N)N)NC(=O)[C@H](Cc2c[nH]cn2)NC(=O)[C@H](CCC(=O)O)NC(=O)CNC(=O)[C@H](Cc2c[nH]c3ccccc23)NC(=O)[C@H](CC(=O)O)NC(=O)[C@H](CCC(N)=O)NC(=O)[C@H](Cc2cn(C)c3ccccc23)NC1=O
B10: Compound 10 (peptide)
peptide: Ac-ESSAYCIWQDWGEHRCT-NH2
modifications: disulfide 6-16
SMILES: CC[C@H](C)[C@@H]1NC(=O)[C@@H](NC(=O)[C@H](Cc2ccc(O)cc2)NC(=O)[C@H](C)NC(=O)[C@H](CO)NC(=O)[C@H](CO)NC(=O)[C@H](CCC(=O)O)NC(C)=O)CSSC[C@@H](C(=O)N[C@H](C(N)=O)[C@@H](C)O)NC(=O)[C@H](CCCNC(=N)N)NC(=O)[C@H](Cc2c[nH]cn2)NC(=O)[C@H](CCC(=O)O)NC(=O)CNC(=O)[C@H](Cc2c[nH]c3ccccc23)NC(=O)[C@H](CC(=O)O)NC(=O)[C@H](CCC(N)=O)NC(=O)[C@H](Cc2c[nH]c3ccccc23)NC1=O
B11: Compound 16 (peptide)
peptide: Ac-ICIWQEWGEHRCT-NH2
modifications: disulfide 2-12
SMILES: CC[C@H](C)[C@H](NC(C)=O)C(=O)N[C@H]1CSSC[C@@H](C(=O)N[C@H](C(N)=O)[C@@H](C)O)NC(=O)[C@H](CCCNC(=N)N)NC(=O)[C@H](Cc2c[nH]cn2)NC(=O)[C@H](CCC(=O)O)NC(=O)CNC(=O)[C@H](Cc2c[nH]c3ccccc23)NC(=O)[C@H](CCC(=O)O)NC(=O)[C@H](CCC(N)=O)NC(=O)[C@H](Cc2c[nH]c3ccccc23)NC(=O)[C@H]([C@@H](C)CC)NC1=O
B12: Compound 11 (peptide)
peptide: Ac-[Sar]CIWQDWGEHRCT-NH2
modifications: disulfide 2-12
SMILES: CC[C@H](C)[C@@H]1NC(=O)[C@@H](NC(=O)CN(C)C(C)=O)CSSC[C@@H](C(=O)N[C@H](C(N)=O)[C@@H](C)O)NC(=O)[C@H](CCCNC(=N)N)NC(=O)[C@H](Cc2c[nH]cn2)NC(=O)[C@H](CCC(=O)O)NC(=O)CNC(=O)[C@H](Cc2c[nH]c3ccccc23)NC(=O)[C@H](CC(=O)O)NC(=O)[C@H](CCC(N)=O)NC(=O)[C@H](Cc2c[nH]c3ccccc23)NC1=O
B13: Compound 22 (peptide)
peptide: Ac-ICIWQDWGEHRCE-NH2
modifications: disulfide 2-12
SMILES: CC[C@H](C)[C@H](NC(C)=O)C(=O)N[C@H]1CSSC[C@@H](C(=O)N[C@@H](CCC(=O)O)C(N)=O)NC(=O)[C@H](CCCNC(=N)N)NC(=O)[C@H](Cc2c[nH]cn2)NC(=O)[C@H](CCC(=O)O)NC(=O)CNC(=O)[C@H](Cc2c[nH]c3ccccc23)NC(=O)[C@H](CC(=O)O)NC(=O)[C@H](CCC(N)=O)NC(=O)[C@H](Cc2c[nH]c3ccccc23)NC(=O)[C@H]([C@@H](C)CC)NC1=O
B14: Compound 144 (peptide)
peptide: Ac-SEFCI[Trp(1-Me)]QDW[Sar]EHRC[Sar]E-{AEEA-AEEA-X1-NH2}
modifications: disulfide 4-14
SMILES: CC[C@H](C)[C@@H]1NC(=O)[C@@H](NC(=O)[C@H](Cc2ccccc2)NC(=O)[C@H](CCC(=O)O)NC(=O)[C@H](CO)NC(C)=O)CSSC[C@@H](C(=O)N(C)CC(=O)N[C@@H](CCC(=O)O)C(=O)NCCOCCOCC(=O)NCCOCCOCC(=O)N[C@@H](CCCCNC(=O)CC[C@H](NC(=O)CNC(=O)CC[C@H](NC(=O)CCCCCCCCCCCCCCCCC(=O)O)C(=O)O)C(=O)O)C(N)=O)NC(=O)[C@H](CCCNC(=N)N)NC(=O)[C@H](Cc2c[nH]cn2)NC(=O)[C@H](CCC(=O)O)NC(=O)CN(C)C(=O)[C@H](Cc2c[nH]c3ccccc23)NC(=O)[C@H](CC(=O)O)NC(=O)[C@H](CCC(N)=O)NC(=O)[C@H](Cc2cn(C)c3ccccc23)NC1=O

Starred links: 1 amine or outer side, 2 acyl side, 3 side chain; linkers in the order of their positions; H or OH if unused. Positions of bridges follow the written chain, without caps; N, C: chain ends. Non-standard residues stand in square brackets, D forms with d. X1 = K(γGlu-G-γGlu-17-carboxy-heptadecanoyl), O=C(O)CCCCCCCCCCCCCCCCC(=O)N[C@@H](CCC(=O)NCC(=O)N[C@@H](CCC(=O)NCCCC[C@H](N[*:1])C(=O)[*:2])C(=O)O)C(=O)O; Trp(1-Me) = Cn1cc(C[C@H](N)C(=O)O)c2ccccc21; AEEA = NCCOCCOCC(=O)O; Sar = CNCC(=O)O A value given as a limit tells only on which side of the number the result lay.

The test deals with Human C3 (Complement tech cat #A113c) (human, UniProt P01024 23-1663). As to the kind of experiment: cell-based or functional assay.
Chain of Human C3 (Complement tech cat #A113c) (P01024 23-1663 limits assumed): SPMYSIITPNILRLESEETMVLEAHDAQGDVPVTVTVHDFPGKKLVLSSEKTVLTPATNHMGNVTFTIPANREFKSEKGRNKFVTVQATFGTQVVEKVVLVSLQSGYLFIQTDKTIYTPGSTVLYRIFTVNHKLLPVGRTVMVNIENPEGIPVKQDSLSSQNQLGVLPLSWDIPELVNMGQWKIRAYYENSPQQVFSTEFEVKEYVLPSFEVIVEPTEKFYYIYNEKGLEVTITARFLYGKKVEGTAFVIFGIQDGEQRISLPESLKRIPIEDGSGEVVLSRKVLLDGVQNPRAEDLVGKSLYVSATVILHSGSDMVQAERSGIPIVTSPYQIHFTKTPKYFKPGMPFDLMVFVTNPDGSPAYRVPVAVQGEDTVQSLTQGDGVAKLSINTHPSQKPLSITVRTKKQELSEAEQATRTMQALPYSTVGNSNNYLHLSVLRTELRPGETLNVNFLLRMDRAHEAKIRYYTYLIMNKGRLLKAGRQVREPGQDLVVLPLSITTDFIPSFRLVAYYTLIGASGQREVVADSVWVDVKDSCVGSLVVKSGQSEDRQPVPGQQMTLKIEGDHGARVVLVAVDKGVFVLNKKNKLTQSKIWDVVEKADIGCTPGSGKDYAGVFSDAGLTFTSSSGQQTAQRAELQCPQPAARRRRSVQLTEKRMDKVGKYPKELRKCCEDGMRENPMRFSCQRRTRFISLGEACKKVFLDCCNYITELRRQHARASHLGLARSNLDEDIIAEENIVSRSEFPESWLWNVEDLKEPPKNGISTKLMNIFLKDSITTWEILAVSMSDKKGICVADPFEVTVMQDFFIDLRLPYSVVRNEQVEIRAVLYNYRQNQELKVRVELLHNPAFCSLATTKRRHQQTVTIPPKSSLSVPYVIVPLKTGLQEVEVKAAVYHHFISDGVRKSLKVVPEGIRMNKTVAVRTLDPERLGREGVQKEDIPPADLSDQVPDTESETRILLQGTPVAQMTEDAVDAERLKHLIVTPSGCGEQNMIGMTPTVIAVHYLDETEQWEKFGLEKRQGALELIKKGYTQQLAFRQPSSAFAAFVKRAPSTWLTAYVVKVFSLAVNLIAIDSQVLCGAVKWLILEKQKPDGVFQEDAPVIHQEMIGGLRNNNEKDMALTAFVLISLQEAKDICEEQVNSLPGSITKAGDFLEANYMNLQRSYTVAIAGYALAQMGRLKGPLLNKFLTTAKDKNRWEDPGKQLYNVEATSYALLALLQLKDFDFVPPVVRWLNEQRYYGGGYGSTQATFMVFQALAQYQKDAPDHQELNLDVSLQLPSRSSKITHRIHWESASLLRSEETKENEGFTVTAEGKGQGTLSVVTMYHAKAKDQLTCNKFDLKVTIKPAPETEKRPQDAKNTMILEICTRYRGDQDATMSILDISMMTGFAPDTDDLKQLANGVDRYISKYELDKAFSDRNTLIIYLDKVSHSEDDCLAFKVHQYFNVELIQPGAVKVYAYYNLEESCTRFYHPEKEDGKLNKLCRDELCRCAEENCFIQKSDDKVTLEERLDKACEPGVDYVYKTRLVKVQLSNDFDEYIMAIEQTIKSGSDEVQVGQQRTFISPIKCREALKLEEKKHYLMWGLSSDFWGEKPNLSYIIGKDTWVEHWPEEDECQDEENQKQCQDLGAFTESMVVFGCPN
For B1, the “inhibition of hemolysis IC50” value was < 100 nM. As for B2, the figure is < 100 nM; as for B3, < 100 nM; as for B4, < 100 nM. In the case of B5, the “inhibition of hemolysis IC50” value was < 100 nM. Turning to B6, the “inhibition of hemolysis IC50” value is < 100 nM. As to B7, the “inhibition of hemolysis IC50” value was < 100 nM.

On to B8, for which the “inhibition of hemolysis IC50” value is < 100 nM.

With B9, the “inhibition of hemolysis IC50” value is < 100 nM.

B10: the “inhibition of hemolysis IC50” value is < 100 nM. As to B11, the “inhibition of hemolysis IC50” value was < 100 nM.

For B12, the “inhibition of hemolysis IC50” value was < 100 nM. In the case of B13, the “inhibition of hemolysis IC50” value is < 100 nM. With B14, the “inhibition of hemolysis IC50” value is < 100 nM.

The record behind these values is patent US11965039B2, “Compstatin analogues and their medical uses” (priority 2018, dated 2024).
